MFI, Fold change to WT CD80 and Ratio of PDL1:CD28 data for 13 molecules are collected here from patent US20220177587A1, “METHODS AND USES OF VARIANT CD80 FUSION PROTEINS AND RELATED CONSTRUCTS” (Alpine Immune Sciences, Inc., priority 2018, published 2022).

In assay [1] the target is CD28 (human) (UniProt P10747). The assay can be described thus: flow cytometry, Jurkat/IL2 reporter cells (CD28). On the technique in general: In flow cytometry, cells or beads pass a laser one at a time.
Assay [2] has as its target CD28 (human) (UniProt P10747). Put plainly: flow cytometry, Jurkat cells (CD28); vs WT CD80 ECD-Fc (Abcam).
Assay [3] addresses human PD-L1 (human) (UniProt Q9NZQ7). The assay can be described thus: flow cytometry, CHO/huPD-L1 cells; vs WT CD80 ECD-Fc (Abcam).
The target is the same in assay [4]. The assay can be described thus: flow cytometry, CHO cells expressing huPD-L1.
Assay [5] addresses human CTLA-4 (human) (UniProt P16410). The assay can be described thus: flow cytometry, CHO/huCTLA-4 cells; vs WT CD80 ECD-Fc (Abcam).
Assay [6] deals with human PD-L1 (human) (UniProt Q9NZQ7). The assay can be described thus: flow cytometry; PD-L1 MFI over CD28 MFI of the same protein.
Assay [7] concerns the target human CTLA-4 (human) (UniProt P16410). The assay can be described thus: flow cytometry, CHO cells expressing huCTLA-4.
In assay [8] the target is human PD-L1 (human) (UniProt Q9NZQ7). The assay can be described thus: flow cytometry, CHO cells stably expressing PD-L1.
Assay [9] shares this target. The assay can be described thus: flow cytometry, MFI on PD-L1 cells over MFI on CD28 cells.
Assay [10] concerns the target CD28 (human) (UniProt P10747). Put plainly: flow cytometry, Jurkat cells (CD28).
In assay [11] the target is human CTLA-4 (human) (UniProt P16410). Put plainly: flow cytometry, CHO cells stably expressing CTLA4.
Sequence of human CTLA-4 (human) (P16410 36-223): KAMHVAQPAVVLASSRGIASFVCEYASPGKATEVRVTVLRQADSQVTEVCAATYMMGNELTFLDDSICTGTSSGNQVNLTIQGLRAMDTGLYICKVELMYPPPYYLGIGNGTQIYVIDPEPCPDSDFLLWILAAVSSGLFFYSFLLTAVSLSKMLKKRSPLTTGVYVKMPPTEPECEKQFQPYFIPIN

Sequence of human PD-L1 (human) (Q9NZQ7 19-290): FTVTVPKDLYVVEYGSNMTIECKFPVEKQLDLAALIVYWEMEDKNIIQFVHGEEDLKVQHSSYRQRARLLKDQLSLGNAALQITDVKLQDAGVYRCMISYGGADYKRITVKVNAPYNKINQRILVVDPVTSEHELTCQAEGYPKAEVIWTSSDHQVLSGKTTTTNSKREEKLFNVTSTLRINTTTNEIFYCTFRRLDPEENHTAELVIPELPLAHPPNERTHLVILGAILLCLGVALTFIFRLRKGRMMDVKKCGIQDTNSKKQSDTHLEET

B1: variant CD80 IgV-Fc E35D/V68M/L85Q (Fc fusion)
chain: VIHVTKEVKEVATLSCGHNVSVEELAQTRIYWQKDKKMVLTMMSGDMNIWPEYKNRTIFDITNNLSIMILALRPSDEGTYECVVQKYEKDAFKREHLAEVTLSVKAD
As for B1, the MFI at 33.3 nM came to 76.2 MFI in the assay with CD28 (human) [1], 5970 MFI with human PD-L1 (human) [4] and 42800 MFI with human CTLA-4 (human) [7]. The Fold change to WT CD80 came to 0.1 fold with CD28 (human) [2], 46.6 fold with human PD-L1 (human) [3] and 1.1 fold in the assay with human CTLA-4 (human) [5]. Moreover, in the assay with human PD-L1 (human) [6], the Ratio of PDL1:CD28 was found to be 78.4.

B2: variant CD80 IgV-Fc M47V/N48K/K89N (Fc fusion)
chain: VIHVTKEVKEVATLSCGHNVSVEELAQTRIYWQKEKKMVLTMMSGDVKIWPEYKNRTIFDITNNLSIVILALRPSDEGTYECVVLKYENDAFKREHLAEVTLSVKAD
On to B2, for which the MFI at 33.3 nM in the assay with CD28 (human) [1] turned out to be 366 MFI; with human PD-L1 (human) [4], 2370 MFI; with human CTLA-4 (human) [7], 42100 MFI. Further, the Fold change to WT CD80 turned out to be 0.5 fold with CD28 (human) [2], 18.5 fold with human PD-L1 (human) [3] and 1 fold in the assay with human CTLA-4 (human) [5]. Also, in the assay with human PD-L1 (human) [6], the Ratio of PDL1:CD28 came out at 6.5.

B3: variant CD80 IgV-Fc M47L/V68M/A71G/D90G (Fc fusion)
chain: VIHVTKEVKEVATLSCGHNVSVEELAQTRIYWQKEKKMVLTMMSGDLNIWPEYKNRTIFDITNNLSIMILGLRPSDEGTYECVVLKYEKGAFKREHLAEVTLSVKAD
Take B3: the Fold change to WT CD80 with human PD-L1 (human) [8] stood at 714 fold; with CD28 (human) [10] it was 82.2 fold; in the assay with human CTLA-4 (human) [11], 12.8 fold. In addition, the MFI at 33.3 nM came out at 31100 MFI with human PD-L1 (human) [8], 3610 MFI in the assay with CD28 (human) [10] and 17400 MFI with human CTLA-4 (human) [11]. In addition, the Ratio of PDL1:CD28 with human PD-L1 (human) [9] came to 8.6.

B4: variant CD80 IgV-Fc A26E/V68M/A71G/D90G (Fc fusion)
chain: VIHVTKEVKEVATLSCGHNVSVEELEQTRIYWQKEKKMVLTMMSGDMNIWPEYKNRTIFDITNNLSIMILGLRPSDEGTYECVVLKYEKGAFKREHLAEVTLSVKAD
As to B4, the values for the Fold change to WT CD80 with human PD-L1 (human) [8], with CD28 (human) [10] and in the assay with human CTLA-4 (human) [11] were 73.3 fold, 27.2 fold and 6.4 fold, respectively. For the same molecule, the values for the MFI at 33.3 nM with human PD-L1 (human) [8], with CD28 (human) [10] and in the assay with human CTLA-4 (human) [11] were 3200 MFI, 1190 MFI and 8670 MFI, respectively. Further, in the assay with human PD-L1 (human) [9], the Ratio of PDL1:CD28 was 2.7.

B5: variant CD80 IgV-Fc E35D/D46V/M47L/L85Q (Fc fusion)
chain: VIHVTKEVKEVATLSCGHNVSVEELAQTRIYWQKDKKMVLTMMSGVLNIWPEYKNRTIFDITNNLSIVILALRPSDEGTYECVVQKYEKDAFKREHLAEVTLSVKAD
With B5, the values for the MFI at 33.3 nM with CD28 (human) [1], with human PD-L1 (human) [4] and with human CTLA-4 (human) [7] were 268 MFI, 7520 MFI and 38200 MFI, respectively. Moreover, the values for the Fold change to WT CD80 with CD28 (human) [2], with human PD-L1 (human) [3] and with human CTLA-4 (human) [5] were 0.4 fold, 58.8 fold and 0.9 fold, respectively. Further, the Ratio of PDL1:CD28 with human PD-L1 (human) [6] amounted to 28.1.

B6: variant CD80 IgV-Fc A26E/E35D/V68M/D90G (Fc fusion)
chain: VIHVTKEVKEVATLSCGHNVSVEELEQTRIYWQKDKKMVLTMMSGDMNIWPEYKNRTIFDITNNLSIMILALRPSDEGTYECVVLKYEKGAFKREHLAEVTLSVKAD
Consider B6, for which the Fold change to WT CD80 is 160 fold with human PD-L1 (human) [8], 38.3 fold with CD28 (human) [10] and 10.2 fold with human CTLA-4 (human) [11]. The MFI at 33.3 nM was determined as 6990 MFI with human PD-L1 (human) [8], 1680 MFI in the assay with CD28 (human) [10] and 13900 MFI with human CTLA-4 (human) [11]. Moreover, in the assay with human PD-L1 (human) [9], the Ratio of PDL1:CD28 was found to be 4.2.

B7: variant CD80 IgV-Fc E35D/D46V/M47L/V68M/L85Q (Fc fusion)
chain: VIHVTKEVKEVATLSCGHNVSVEELAQTRIYWQKDKKMVLTMMSGVLNIWPEYKNRTIFDITNNLSIMILALRPSDEGTYECVVQKYEKDAFKREHLAEVTLSVKAD
B7: the MFI at 33.3 nM with CD28 (human) [1] turned out to be 464 MFI; with human PD-L1 (human) [4], 28400 MFI; with human CTLA-4 (human) [7] it was 26200 MFI. Moreover, the Fold change to WT CD80 in the assay with CD28 (human) [2] came to 0.7 fold; in the assay with human PD-L1 (human) [3], 222 fold; with human CTLA-4 (human) [5] it was 0.6 fold. Moreover, in the assay with human PD-L1 (human) [6], the Ratio of PDL1:CD28 stood at 61.2.

B8: variant CD80 IgV-Fc D46V/M47L/V68M (Fc fusion)
chain: VIHVTKEVKEVATLSCGHNVSVEELAQTRIYWQKEKKMVLTMMSGVLNIWPEYKNRTIFDITNNLSIMILALRPSDEGTYECVVLKYEKDAFKREHLAEVTLSVKAD
Consider B8, for which the results for the MFI at 33.3 nM with CD28 (human) [1], in the assay with human PD-L1 (human) [4] and in the assay with human CTLA-4 (human) [7] were 2180 MFI, 28000 MFI and 34700 MFI, respectively. Further, the Fold change to WT CD80 with CD28 (human) [2] came to 3.1 fold; with human PD-L1 (human) [3] it was 219 fold; with human CTLA-4 (human) [5] it was 0.9 fold. Besides, the Ratio of PDL1:CD28 with human PD-L1 (human) [6] was determined as 12.8.

B9: variant CD80 IgV-Fc H18Y/V68M/A71G/D90G (Fc fusion)
chain: VIHVTKEVKEVATLSCGYNVSVEELAQTRIYWQKEKKMVLTMMSGDMNIWPEYKNRTIFDITNNLSIMILGLRPSDEGTYECVVLKYEKGAFKREHLAEVTLSVKAD
With B9, the Fold change to WT CD80 with human PD-L1 (human) [8] turned out to be 703 fold; with CD28 (human) [10] it was 77.8 fold; in the assay with human CTLA-4 (human) [11], 16.4 fold. For the same molecule, the values for the MFI at 33.3 nM with human PD-L1 (human) [8], with CD28 (human) [10] and with human CTLA-4 (human) [11] were 30700 MFI, 3410 MFI and 22300 MFI, respectively. Further, in the assay with human PD-L1 (human) [9], the Ratio of PDL1:CD28 worked out at 9.

B10: variant CD80 IgV-Fc E35D/N48K (Fc fusion)
chain: VIHVTKEVKEVATLSCGHNVSVEELAQTRIYWQKDKKMVLTMMSGDMKIWPEYKNRTIFDITNNLSIVILALRPSDEGTYECVVLKYEKDAFKREHLAEVTLSVKAD
For the molecule B10, the MFI at 33.3 nM in the assay with CD28 (human) [1] was 194 MFI; in the assay with human PD-L1 (human) [4], 6540 MFI; in the assay with human CTLA-4 (human) [7] it was 41300 MFI. Further, the Fold change to WT CD80 came out at 0.3 fold in the assay with CD28 (human) [2], 51.1 fold with human PD-L1 (human) [3] and 1 fold in the assay with human CTLA-4 (human) [5]. Besides, the Ratio of PDL1:CD28 with human PD-L1 (human) [6] turned out to be 33.7.

B11: variant CD80 IgV-Fc E35D/N48K/K89N (Fc fusion)
chain: VIHVTKEVKEVATLSCGHNVSVEELAQTRIYWQKDKKMVLTMMSGDMKIWPEYKNRTIFDITNNLSIVILALRPSDEGTYECVVLKYENDAFKREHLAEVTLSVKAD
B11: the MFI at 33.3 nM with CD28 (human) [1] was found to be 411 MFI; in the assay with human PD-L1 (human) [4], 5770 MFI; with human CTLA-4 (human) [7] it was 34700 MFI. The Fold change to WT CD80 with CD28 (human) [2] worked out at 0.6 fold; with human PD-L1 (human) [3] it was 45 fold; with human CTLA-4 (human) [5] it was 0.9 fold. The Ratio of PDL1:CD28 with human PD-L1 (human) [6] was found to be 14.

B12: variant CD80 IgV-Fc A26E/M47L/A71G/D90G (Fc fusion)
chain: VIHVTKEVKEVATLSCGHNVSVEELEQTRIYWQKEKKMVLTMMSGDLNIWPEYKNRTIFDITNNLSIVILGLRPSDEGTYECVVLKYEKGAFKREHLAEVTLSVKAD
As for B12, the Fold change to WT CD80 in the assay with human PD-L1 (human) [8] stood at 303 fold; with CD28 (human) [10] it was 44.5 fold; in the assay with human CTLA-4 (human) [11], 16.2 fold. Also, the results for the MFI at 33.3 nM in the assay with human PD-L1 (human) [8], with CD28 (human) [10] and with human CTLA-4 (human) [11] were 13200 MFI, 1960 MFI and 22000 MFI, respectively. Further, the Ratio of PDL1:CD28 with human PD-L1 (human) [9] amounted to 6.8.

B13: variant CD80 IgV-Fc E35D/M47L/A71G/D90G (Fc fusion)
chain: VIHVTKEVKEVATLSCGHNVSVEELAQTRIYWQKDKKMVLTMMSGDLNIWPEYKNRTIFDITNNLSIVILGLRPSDEGTYECVVLKYEKGAFKREHLAEVTLSVKAD
In the case of B13, the Fold change to WT CD80 with human PD-L1 (human) [8] turned out to be 277 fold; with CD28 (human) [10], 30.3 fold; in the assay with human CTLA-4 (human) [11], 15.4 fold. Moreover, the figures for the MFI at 33.3 nM with human PD-L1 (human) [8], with CD28 (human) [10] and in the assay with human CTLA-4 (human) [11] were 12100 MFI, 1330 MFI and 20900 MFI, respectively. In addition, the Ratio of PDL1:CD28 in the assay with human PD-L1 (human) [9] worked out at 9.1.
